Test results taken from US20100279930A1 (published 2010).
Where two headings read alike, the source gives them in different places.

Experiments:
human Y4 receptor [1] = target: T1, human Y4 receptor (human, UniProt P50391 1-375); assay: 125I-PP displacement
human Y4 receptor [2] = target: T1, human Y4 receptor; assay: 125I-PP displacement; remark: listed apart in the source

T1 sequence (P50391 whole entry): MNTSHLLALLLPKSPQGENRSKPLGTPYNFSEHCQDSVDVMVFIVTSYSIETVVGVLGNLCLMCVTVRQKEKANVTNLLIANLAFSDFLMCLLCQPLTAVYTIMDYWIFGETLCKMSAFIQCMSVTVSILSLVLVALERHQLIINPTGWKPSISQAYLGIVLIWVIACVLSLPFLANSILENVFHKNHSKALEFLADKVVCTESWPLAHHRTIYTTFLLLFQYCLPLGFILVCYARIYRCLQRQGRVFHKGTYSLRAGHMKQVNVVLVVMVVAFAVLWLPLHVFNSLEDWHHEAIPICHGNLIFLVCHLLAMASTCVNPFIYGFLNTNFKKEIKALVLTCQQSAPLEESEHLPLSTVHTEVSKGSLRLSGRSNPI

Binder | IC50 (human Y4 receptor [1]) | IC50 (human Y4 receptor [2])
PAPLEPTYPGDDATPQQMAKYAAALRRYINILTRPRY [7268] | 127 pM | –
APLEPVYPGDNATPEQNLAQYAADLRRYINMLTRPRY [4055398] | 150 pM | –
APPEPVYPGDDATPEQMAEYVADLRRYINMLTRPRY [4055405] | 240 pM | –
APLEPVYPGDNATPEQMAQYYASLQHYLNLVTRPRY [4055246] | 460 pM | –
APLEPVYPGDDATPQQMAQYYASLRHYLNLVTRPRY [4055247] | 300 pM | –
PAPLEPKYPGDNATPEQMARYAAALRRYINMLTRPRY [7248] | 131 pM | –
PAPLEPVYPGDNATPEQIARYAAALRRYINKLTRPRY [7244] | 106 pM | –
AAPLEPHYPGDNATPEQMAKYYSALRRYINKLTRPRY [4057758] | – | 190 pM
PAPLEPTYPGDNATPEQMARYAAALRRYINMLTRPRY [7249] | 89 pM | –
APLEPHYPGDNATPEQMAKYAAELRRYINKLTRPRY [4057764] | – | 94 pM
APLEPHYPGDNATPEQMAKYAADLRRYINKLTRPRF [4057745] | – | 86 pM
APLEPVYPGDNATPEQMAKYAADLRRYINMLTRPRY [compound of SEQ ID NO:224 (Lys 19, code 4055291)] | 320 pM | –
APLEPVYPGDNATPEQMARYAAALRRYINMLTRPRY [7242] | 140 pM | –
APLEPHYPGDNATPEQMAKYAAALRRYINKLTRPRY [4057754] | – | 156 pM
PAPLEPSYPGDNATPEQLAHYYSELRRYINKLTRPRY [4057781] | – | 132 pM
AAPLEPSYPGDNATPEQLAHYYSELRRYINKLTRPRY [4057779] | – | 71 pM
GAPLEPHYPGDDATPQQMARYAAELRRYINKLTRPRY [4057899] | – | 64 pM
AAPLEPTYPGDDATPQQMARYAAELRRYINFLTRPRY [7274] | 107 pM | –
PAPLEPTYPGDDATPQQMARYAAELRRYINFLTRPRY [7259] | 75 pM | –
APLEPVYPGDNATPEQMAQYAADLRRYINMLTRPMY [4054976] | 1400 pM | –
KPLEPVYPGDNATPEQMAQYAADLRRYINMLTRPRY [4055292] | 400 pM | –

The remaining lines, values ahead:

IC50 (human Y4 receptor [1]) | IC50 (human Y4 receptor [2]) | Binder
– | 117 pM | PAPLEPVYPGDNATPEELARYAAELRRYINKLTRPRY [4057769]
670 pM | – | APLEPVYPGDNATPEQMAQYAADLNLRYINMLTRPRY [4054990]
500 pM | – | APLEPVYPGDNATPEQMAQYYASLRHYLNLVTRPRY [4055245]
– | 145 pM | AAPLEPHYPGDNATPEQMAKYAAALRRYINKLTRPRY [4057755]
96 pM | – | PAPLEPTYPGDNATPEQMAKYAAELRRYINMLTRPRY [7251]
58 pM | – | PAPLEPVYPGDNATPEQMARYAAALRRYINKLTRPRY [7243]
95 pM | – | PAPLEPTYPGDNATPEQMAKYAAELRRYINFLTRPRY [7253]
300 pM | – | APLEPVYPGDNATPEQMAEYAADLRRYINMLTRPRY [4055524]
110 pM | – | APLEPVYPGDNATPEQMAHYAADLRRYINMLTRPRY [4055525]
860 pM | – | APLEPVYPGDDATPEQMAQYAAELRRYINMLTRPRY [4055195]
280 pM | – | APLEPVYPGDNATPEQMAQYAADLRRYINLLTRPRY [4055399]
– | 164 pM | PAPLEPHYPGDDATPQQLAHYYSELRRYINKLTRPRY [4057789]
171 pM | – | PAPLEPTYPGDDATPQQMAKYAAELRRYINILTRPRY [7270]
– | 42 pM | YAPLEPEYPGDDATPQQMARYAAELRRYINKLTRPRY [4058053]
– | 75 pM | AAPLEPHYPGDNATPEQMAKYAAELRRYINKLTRPRY [4057765]
– | 137 pM | YAPLEPHYPGDDATPQQMARYAAELRRYINKLTRPRY [4058054]
187 pM | – | PAPLEPTYPGDDATPQQMARYAAALRRYINILTRPRY [7269]
– | 64 pM | HAPLEPHYPGDNATPEQMARYAAELRRYINKLTRPRY [4057902]
220 pM | – | PAPLEPTYPGDDATPQQMARYAAELRRYINILTRPRY [7271]
170 pM | – | APLEPVYPGDDATPEQMAEYAADLRRYINMLTRPRY [4055406]
380 pM | – | APLEPVYPGDNATPEQMAQYAADLMRYINMLTRPRY [4054981]
200 pM | – | APLEPVYPGDNATPEQLAQYAADLRKYINLLTRPRY [4055549]
720 pM | – | APLEPVYPGDNATPEQMAQYAADLRRYINMLTRPHY [4054987]
